# B1: Charged multivesicular body protein 3 (Homo sapiens), Q9Y3E7-1 (parent)
# chain: MGLFGKTQEKPPKELVNEWSLKIRKEMRVVDRQIRDIQREEEKVKRSVKDAAKKGQKDVCIVLAKEMIRSRKAVSKLYASKAHMNSVLMGMKNQLAVLRVAGSLQKSTEVMKAMQSLVKIPEIQATMRELSKEMMKAGIIEEMLEDTFESMDDQEEMEEEAEMEIDRILFEITAGALGKAPSKVTDALPEPEPPGAMAASEDEEEEEEALEAMQSRLATLRS
# partner: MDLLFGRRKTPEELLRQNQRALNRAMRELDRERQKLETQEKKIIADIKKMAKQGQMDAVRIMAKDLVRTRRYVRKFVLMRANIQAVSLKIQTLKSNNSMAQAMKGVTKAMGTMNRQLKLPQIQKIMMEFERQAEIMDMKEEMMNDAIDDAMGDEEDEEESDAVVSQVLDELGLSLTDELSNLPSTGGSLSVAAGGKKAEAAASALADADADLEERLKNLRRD
# Variants of: B1
# Details: with chm2a_human CHMP2A
row,Variant,effect of a mutation on the interaction
1,V59D;V62D;I168D;L169D,disrupting interaction
2,V59D;V62D,disrupting interaction
